This is an account of results in article PMC3546673.

Test [1] concerns the target F-actin (actin filaments) (UniProt P68135). Kind of test: single filament binding assay (fluorescence microscopy); actin filaments from 1 μM G-actin with rhodamine-phalloidin (1 μM) and Alexa-488-labeled trx protein (5 μM), 22 °C, 30 min; diluted 1:50 and put on poly-L-lysine-coated coverslips.
In test [2] the target is gelsolin-capped actin filaments (UniProt P68135). Kind of test: single filament binding assay (fluorescence microscopy); gelsolin-capped actin filaments labeled with rhodamine-phalloidin, incubated with Alexa-488-conjugated trx-PT or mutant (5 μM), 22 °C, 30 min; diluted 1:50 and put on poly-L-lysine-coated coverslips.

The substance “recombinant thioredoxin-phostensin (trx-PT) (natural protein)” registered a percent localized at the filament end in test [1] of 96%. In turn, trx-PT(35–165) (domain or fragment) had a percent localized at a filament end in test [2] of 96%. As to trx-PT(125–165) (domain or fragment), in test [1], the percent bound to the sides of actin filaments turned out to be 98%.
